{"source": "the DeepSol protein solubility set", "data": [{"assay": "soluble on expression in E. coli; label from the status in PepcDB or PDB records", "values": [{"sequence": "MSLTDVMFKSQIANQLKNLRKSRGLSLDATAQLTGVSKAMLGQIERGESSPTIATLWKIASGLEASFSAFFANDPQLLSSERSFPDDLNMKIHTLFPYAADTGLEIFEITLLDHHQQMSSPHALGVIEYIHVLEGIMKVFFDEQWHELQQGEHIRFFSDQPHGYAAVTEKAVFQNIVAYPRREGGSHHHHHH", "soluble on expression in E. coli": "soluble"}, {"sequence": "MEAVERAFRALDEGIADYLARKGIRPSCGPGCFACCYGWVTASRLEAQALLPHLTEAQKARVLEEGPRRLALLAREKDDPGFPRRFFLSRSPCPLLEAGLCGVYAHRPLACRGVLTDEDPAYCDPENPHPAPKPHHGPGHFLRVPHRMARRRMEELWEEERAQTGFLVLGELSGLLYLLLTGLPEDREGVEARLEALGVLGGRFGFQVVAAALEHHHHHH", "soluble on expression in E. coli": "not soluble"}, {"sequence": "MGSDKIHHHHHHMERIDEILSQLTTEEKVKLVVGVGLPGLFGNPHSRVAGAAGETHPVPRLGIPAFVLADGPAGLRINPTRENDENTYYTTAFPVEIMLASTWNRDLLEEVGKAMGEEVREYGVDVLLAPAMNIHRNPLCGRNFEYYSEDPVLSGEMASAFVKGVQSQGVGACIKHFVANNQETNRMVVDTIVSERALREIYLKGFEIAVKKARPWTVMSAYNKLNGKYCSQNEWLLKKVLREEWGFDGFVMSDWYAGDNPVEQLKAGNDMIMPGKAYQVNTERRDEIEEIMEALKEGKLSEEVLDECVRNILKVLVNAPSFKGYRYSNKPDLESHAEVAYEAGAEGVVLLENNGVLPFDENTHVAVFGTGQIETIKGGTGSGDTHPRYTISILEGIKERNMKFDEELASTYEEYIKKMRETEEYKPRTDSWGTVIKPKLPENFLSEKEIKKAAKKNDVAVVVISRISGEGYDRKPVKGDFYLSDDELELIKTVSKEFHDQGKKVVVLLNIGSPIEVASWRDLVDGILLVWQAGQEMGRIVADVLVGKINPSGKLPTTFPKDYSDVPSWTFPGEPKDNPQRVVYEEDIYVGYRYYDTFGVEPAYEFGYGLSYTKFEYKDLKIAIDGETLRVSYTITNTGDRAGKEVSQVYIKAPKGKIDKPFQELKAFHKTKLLNPGESEEISLEIPLRDLASFDGKEWVVESGEYEVRVGASSRDIRLRDIFLVEGEKRFKP", "soluble on expression in E. coli": "not soluble"}, {"sequence": "MPQTERQLRVWIEGATGRRIGDNFMDGLKDGVILCELINKLQPGSVQKVNDPVQNWHKLENIGNFLRAIKHYGVKPHDIFEANDLFENTNHTQVQSTLIALASQAKTK", "soluble on expression in E. coli": "soluble"}, {"sequence": "MKQLYWYTCGEGDCDLVLLHGWGLNSGVWHCIIDRLAPHFRLHLVDLPGYGRSQDYGAMSLADMAERVAQQAPKQALWLGWSMGGLVASQIALSQPECVRGLITVSSSPCFTARDEWPGIKPEVLAGFQHQLSDDFHRTVERFLALQTLGTESSRQDARLLKSVVLQHQMPDVEVLTGGLAILRTADLRTALAGFTLPFMRVYGHLDSLVPRKVASLLDSAWPQTQSVVMQGAAHAPFISHPNDFAKLILNFAEENKK", "soluble on expression in E. coli": "not soluble"}, {"sequence": "MSLASQSEAEVLIGVAGPMSGKLAWTGTQLRRGAEMAVANINAAGGVLGQQVRLIVADDFCDPRQALAAAEKLVADGAVFVIGHYCSGASIPASKIYAAAGVLQISPSSTNPMLTEQGHANVFRVCSRDDAQGHKAGNYLADHWGDSKIAILHDNTTYGKGLADETKKQLNMRGVTEAVYQSYTPGKDDYSVEVAALQTAHIAVLYLGGYHTEAALMVRAARDRAYPVQLISGDDTATEAFGLIAGPAAEGTLFTFVADPRRNAEAAEVVERFRAENFEPDSWTLHSYGAAEIWAQAVTKANSLDLQAVIAALREDQFDTVLGRIDFDKKGDLTVQSWVWYVWKSGEYVPVEEGHHHHHH", "soluble on expression in E. coli": "soluble"}, {"sequence": "MNDAVPAGNFVPPLILHSDHGGSAMSSSAHRGRILHFLGDPAKLGDKAWEYFEDGLLWIEHGHVRALDHATYLLPQLPADLPLEEHPQRLLLPGFVDCHVHYPQLGVIASYGTQLLDWLETHTFPAEQRFADAGYAAAQAELFLDELLRHGTTTALVFGTVHAVSAEAFFQAAQKRRLRMIAGKVLMDRNAPPALCDTAASGYAESRALIERWHGNGRLQYAVTPRFAPTSSPEQLAAAARLLDEYPGVYLHTHLSENLKEVAWVGELFPQAQDYLDVYHRAGLVGERSVFAHGIHLSERECRCLAHKNAALAHCPSSNLFIGSGLFDLGRAQQYGIRVGIGSDVGGGTSLSLLANLADAYKIQQLRGTSLDPFQALYLATLGGARALDLDGLVGNFLPGREADFVALDLAATPMIAQRMEHARGLADTLFVLNTLGDDRAVAETWVMGERRHVKG", "soluble on expression in E. coli": "not soluble"}, {"sequence": "MAGDPMYRVGIDVGGTNTDAVVLQDKTVLAGVKASTTEDVTSGVIEALEKVIDASGIDRARIGAVMIGTTHFTNAVIERRHMDEVAAIRIGLPSGAGLPPMVDWPDDLKEIVGNHGYQVRGGYEFDGREISPLDEDEIVRIAADIRAKALKAAAVTCVFSGINDAMEVRAKEILQDRCPGLPVVMSKDIGRHGLLARESAAIMNASLLSLADRTVAAFGEALKAAGITCPFYITQNDGTLMAADVVRGFPVLTFASGPTNSMRGAAFLTGLKDAVVVDVGGTTSDVGSLSHGFPRQASTTVDIGGVRTNFRMPDVFSIGLGGGSMVVNGDHGLTVGPKSVGYRVRRDALCFGGSTLTATDIAVASGKADVGEKALVSSLDKRLVDAAVNKINDMLEACVERSRISSSPVPVIAVGGGSILMPDRIGNLDVIRPENFAVANAVGAAIAQISGETDRVFSLIDGRTRESALAEAEAEAREKAIAAGAIAETLEVIEREDMPLAYLPGNATRIHVKVVGEMGANHGAAALEHHHHHH", "soluble on expression in E. coli": "not soluble"}, {"sequence": "LQVYTSDNQLIAEYGGKLSVPVEYNQIPPTFIHAFLAAEDSSFFEHSGISFKGLGRALSETVTGSNVQTGGSTITMQVAKNYYLSPERTLKRKLTEIFLARKIEQNLTKQEILSLYVNKIFLGKNAYGIAAAAKIYYNKTLDQLSIAEMAMISGLPKAPSKYNPVVNP", "soluble on expression in E. coli": "not soluble"}, {"sequence": "MFSPQAYLIFNMRKPPFDNIKVRQAVMHAFNRKLVVDNIFFGLGKISTSPFVPTEMFFDKDIPAIPFDMKKARALIKESGINPGDYTIRQLSFPYGATWDRLGEYTKQALEQLGFKVNVESTDAGGWASRTGNWDFDLTTTYSYQYGDPALGVQRLYVTSNIVKGSPFANMQGYSNPESDKLWEQAAAEVDPAKRQELYNKIQALLVAEVANGFLVDME", "soluble on expression in E. coli": "not soluble"}, {"sequence": "MRCYAKIHSYQLLFVADVDYDCHHKDKFFRRHCVVAKILPRFDAVLFLDADTGVVNPSRKIEEFLKPGIDITFVNRFCNWEIASGFYLARNTPFAINLLNNFADYESKLPNSFHGTDNGAIHIFLAEKIFPQASIEIGICRRAYEKSTSVEDLILYEACIKALFGVVTDFGKIQILRKGTGWARDGWLTSMVWHPETDFMLHGWKTNALIPTPTDPLVAIEMSMSQWFNPLNGSIDLSKCNSHNSTWNYDARLLGNNEEIQKSLHRIQKENSILQVKAYSDFSKFISL", "soluble on expression in E. coli": "not soluble"}, {"sequence": "MGSDKIHHHHHHMTRTIVIDPVTRIEGHAKISVFLDDQGNAEAARFHVVEYRGFEKFCEGRPFTEMAGITARICGICPVSHLLAAAKTGDKILAVQIPPAAENLRRLINLAQIIQSHALSFFHLSSPDFLLGWDSDPARRNLFGLIAADPETARAGIRLRQFGQQLIEWLGGRKIHAAWAVPGGVRSLLSQEGMVWIRDRLPAELATVRATLDRFKRLLDREFREETAVFGDFPSLFMGLVADNGDWEHYGGHLRFVDSQGRIIADRLREDDYASFLGEAVEPWSYLKFPYYKPWGYPEGMYRVGPLARLNVCDRIGTAGAEAERQELRDRAGGTVTSSFLYHYARLVEILASLEKIAEMVEDPNLQTGFLRSQAGVNCLEAIGVSEAPRGTLFHHYRVDSHGKIERVNLIIATGQNNLAMNRTVTQIAQHYIRHGEVQESFLNRVEAGIRCFDPCLSCSTHTAGQMPLKIEIFDSRGELYQCLCRDL", "soluble on expression in E. coli": "not soluble"}, {"sequence": "MSLTIEDVAKLAGVSIATVSRVINGSGYVSEKTRYKVWKAIEELGYKPEISAKLLASKGKLFNIYVFASKRILSPLQNNGILGEFYGVIIRAIEENCGRLGMNVELKMLENFSESNGADGYIFIGGDLSEKTLKEIKSRKKPFVLVDHYIPGERVDCVISDGYDGAVYATNYLISKGFKRIVHVHGPLHPYGFKMRYDGYKDAMEKAGLMPRFYECDDTEEGTRKVIDIMLNSYGTPEAIFTSNDSIAFWVIKRLKEHNIKVPDDVSVIGFDDIVDAENFDPPLTTLRVFKYEMGCLACKRLHELLTGINPHPVRILVFTQFVKRKSTKEGHHHHHH", "soluble on expression in E. coli": "not soluble"}, {"sequence": "MAHHHHHHMSQLAHNVNLSIFEPISHHRANRIVCTIGPSTQSVEALKGLIRSGMSVARMNFSHGSHEYHQTTINNLRAAATELGAHIGLALDTKGPEIRTGLFKDGGIALAPGDTVLVTSDPAFEKIGTKEKFYIEYPRLSITVRPGGFIYIDDGVLSLKVLSKEDEYTLKCYVNNAHFLTDRKGCNLPGCEVDLPAVSEKDREDLKFGVEQGIDMVFASFIRTAEQVQEVREALGEKGKDILIISKIENHQGVQNIDGIIEASDGIMVARGDLGVEIPAEKVVVAQMILISKCNVAGKPVICATQMLESMTTNPRPTRAEVSDVANAVFNGADCVMLSGETAKGKYPNEVVQYMARICLEAQSATNQAVMFNSIKKMQKLPMSPEEAVCSSAVNSVYEVRAKALLVLSNSGRSARLASKYRPDCPIICATTRMRTCRQLTITRSVDAVFYDAERYGEDENKEKRVQLGVDCAKKKGYVVPGDLMVVVHADHKVKGYPNQTRIIYVS", "soluble on expression in E. coli": "not soluble"}, {"sequence": "MKSEANLRGMIDIEFYYHTCEAKKYFRNEVINYLVNLKSNVTIEMTRYWTEGADVVNHLFFCNIHGIGIPNLHGVLFQVKSYRYYSGFLLSTASQSFCG", "soluble on expression in E. coli": "not soluble"}, {"sequence": "MSLTIEDNHGTEGISLPIEGVAATDNRAFELLDRWGVELVAAPLQLVPFTVTGYTEEGGVANLGSHREPDLEALAAAQPSLIINGQRFAQYYDDIIALNPDATVVELDPRDGEPLDQELIRQAETLGEIFGEEEDAAKIVADFESALERAKTAYAAISDQTVMAVNVSGGNIGYIAPSVGRTYGPIFDLVGLTPALEVGNASSDHEGDDINVEAIAAANPDLILVMDRDGGTSTRNEADYVPAEQIVSDNEALANVKAVTDGYVYYAPADTYTNENIITYTEILNGMADMFEKAAQEGHHHHHH", "soluble on expression in E. coli": "soluble"}, {"sequence": "TDLSAQKRLAADVLDVGKNRVWFNPERQGDIADAITREDVRELVDEGAIQAKDKKGNSRGRARERQKKRAKGHQKGAGSRKGKAGARQNSKEDWESRIRAQRTKLRELRDEGTLSSSQYRDLYDKAGGGEFDSVADLERYIDANHGDA", "soluble on expression in E. coli": "soluble"}, {"sequence": "MEINVQSDVGRKRNTNQDYANVFENQQHITFAVLADGMGGHQAGDVASQMAVNNLGESWSNASVDSAEKSAQWLIQAIQKENEKIYERGQSKPEYLGMGTTVVGAILLPDSFVLANVGDSRAYLVRDQHMLQLTEDHSLVNELVKSGEITREMAANHPRKNVLTRSLGMPGTVEVDVTNHEWLPNDYLLLCSDGLTNMVPETKILEILETSDPLESKLSQLVAQANEAGGLDNITVLVIHFDEQKEENQ", "soluble on expression in E. coli": "not soluble"}, {"sequence": "MDYYRVGTLVNTHGIRGEVKVVVVTDFPEERFKVGQQLSLFKTPDETTGGITVKIAKAREQKGLYFLTFEGLDNINDVERYKGWTIKVPAEALHALPAGEYYYHQIVGLQVVTTADEPLGTIKEILSPGANDVWVVKRDHGQSDVLLPKIPQVIKDVDLDAGVVTVELMEGLIDLEHHHHHH", "soluble on expression in E. coli": "soluble"}, {"sequence": "MNRTIDRSVPKLGVRSTRQRTAVVGVLKDLDYFASAKVIHQELTKRDLKVGLTTVYRTLQSLSEIEAVDVLHMSNGETLYRHCLSDEHHHHLVCTECGRTVEIDGGPVEKWAKEVAQLHGFQVTGHDAEIYGLCESCSAATE", "soluble on expression in E. coli": "not soluble"}, {"sequence": "GSHMEEPSDLEELEQFAKTFKQRRIKLGFTQGDVGLAMGKLYGNDFSQTTISRFEALNLSFKNMAKLKPLLEKWLNDAENLSSDSSLSSPSALNSPGIEGLSERRKKRTSIETNIRVALEKSFLENQKPTSEEITMIADQLNMEKEVIRVWFCNRRQKEKRINPPSS", "soluble on expression in E. coli": "soluble"}]}]}
